Consider 1 molecule from patent US20120208237A1 (Novo Nordisk, published 2012).

This experiment addresses T1, KIR2DS3 expressed on transfected cells (human, UniProt Q14952 22-304).
T1 construct: whole, on cells
Nature of the experiment: flow cytometry on cells transfected with KIR2DS3 (fifth column; its head is printed KIRDLS1 a second time, the legend's order gives KIR2DS3). As to the method:
The KIR2DL cross-reactive mAbs were then tested for their ability to react with KIR at the surface of cells by flow cytometry. Briefly, the binding of the human anti-KIR mAbs was tested by incubating them with various cell lines stably over-expressing KIRs (e.g., YTS-2DL1, BWZ-KIR2DL2 and BWZ-KIR2DS4) or not expressing KIRs (e.g., YTS and BWZ). Briefly, cells were incubated with various concentrations (typically 0-50 μg/ml) of human anti-KIR mAb1-7F9 in DMEM-medium containing 2% FCS. After incubation, cells were washed and incubated with APC-conjugated secondary antibodies specific for human IgG. All incubations and washing steps were performed at 0-4° C. Subsequently, cells were washed, resuspended in PBS, and analyzed by flow cytometry on a FACScalibur or a FACScanto (both from Beckton Dickinson).

T1 sequence (Q14952 22-304): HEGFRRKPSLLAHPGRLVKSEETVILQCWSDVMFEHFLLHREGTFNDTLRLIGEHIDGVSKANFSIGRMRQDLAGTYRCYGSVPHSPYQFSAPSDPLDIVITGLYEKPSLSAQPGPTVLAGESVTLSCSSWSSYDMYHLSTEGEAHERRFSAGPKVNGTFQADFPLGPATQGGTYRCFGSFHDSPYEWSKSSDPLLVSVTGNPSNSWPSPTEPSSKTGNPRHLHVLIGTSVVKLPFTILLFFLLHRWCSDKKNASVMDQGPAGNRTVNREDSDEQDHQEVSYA

B1: human monoclonal antibody 1-7F9 (antibody, human IgG4, kappa, V domains shown)
VH: QVQLVQSGAEVKKPGSSVKVSCKASGGTFSFYAISWVRQAPGQGLEWMGGFIPIFGAANYAQKFQGRVTITADESTSTAYMELSSLRSDDTAVYYCARIPSGSYYYDYDMDVWGQGTTVTVSS
VL: EIVLTQSPVTLSLSPGERATLSCRASQSVSSYLAWYQQKPGQAPRLLIYDASNRATGIPARFSGSGSGTDFTLTISSLEPEDFAVYYCQQRSNWMYTFGQGTKLEIKR
notes: also called HuKIR 1-7F9; HuKIR1-7F9
In the case of B1, the binding result is “no binding (tested: 1 µg/ml)”.
